The source of these data is US20230312754A1 (published 2023).

In assay [1] the target is T1, human CEACAM5 (R&D Systems #4128-CM-050) (human, UniProt P06731 35-685).
T1 construct: Bought protein; also called hCEACAM-5; Human CEACAM5-His
T1 sequence (looked up): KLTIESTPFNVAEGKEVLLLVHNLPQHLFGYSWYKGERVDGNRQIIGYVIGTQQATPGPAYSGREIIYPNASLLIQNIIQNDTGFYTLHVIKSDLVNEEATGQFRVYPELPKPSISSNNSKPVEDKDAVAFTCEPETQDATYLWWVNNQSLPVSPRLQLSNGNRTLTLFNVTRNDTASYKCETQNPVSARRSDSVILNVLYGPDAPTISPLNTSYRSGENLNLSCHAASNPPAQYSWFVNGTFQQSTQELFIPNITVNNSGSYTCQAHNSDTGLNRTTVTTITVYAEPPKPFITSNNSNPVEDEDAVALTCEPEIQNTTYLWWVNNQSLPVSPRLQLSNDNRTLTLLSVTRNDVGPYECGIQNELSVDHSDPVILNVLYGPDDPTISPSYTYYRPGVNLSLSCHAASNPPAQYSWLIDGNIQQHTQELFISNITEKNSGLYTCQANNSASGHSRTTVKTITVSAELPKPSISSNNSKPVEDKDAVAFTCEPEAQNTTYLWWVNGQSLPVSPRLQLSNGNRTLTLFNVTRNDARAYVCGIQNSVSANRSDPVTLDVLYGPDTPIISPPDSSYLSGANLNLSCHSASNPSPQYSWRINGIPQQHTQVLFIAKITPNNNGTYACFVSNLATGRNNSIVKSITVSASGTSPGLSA
The assay is described as follows: dual target ELISA: coated hCEACAM-5, detection with biotinylated hCD40-muIg. The procedure: 96-well plates were coated with 0.5 μg/mL antigen, hCEACAM-1 (2244-CM-050, R&D Systems), hCEACAM-5 (4128-CM-050, R&D Systems), hCEACAM-6 (3934-CM-050, R&D Systems) or CEACAM-8 (9639-CM-050, R&D Systems) in PBS over night at 4° C. After washing in PBS/0.05% Tween 20 (PBST), the plates were blocked with PBST, 2% BSA for at least 30 minutes at room temperature before a second round of washing. RUBY bsAbs, diluted in PBST, 0.5% BSA, were then added and allowed to bind for at least 1 hour at room temperature. […] Finally, a final round of washing was performed and bound complexes detected using SuperSignal Pico Luminescent as substrate and luminescence signals were measured using Fluostar Optima.
A general note: ELISA stands for enzyme-linked immunosorbent assay.

Assay [2] deals with T2, biotinylated human CD40-mouse Fc (Ancell #504-030) (human, UniProt P25942 21-193, biotinylated).
T2 construct: Bought protein; also called biotinylated hCD40-muIg; CD40mFc-biotin; not shown: mouse Fc (muIg) part
Put plainly: Octet (BLI), bsAb in solution, captured CD40mFc-biotin, 1:1 fit. The procedure:
Kinetic measurements were performed in the Octet RED96 platform using several different setups. […] Monomeric human CD40-His-Avi tag (Acro Biosystems #CD0-H5228), monomeric Human CEACAM5-His (R&D Systems #4128-CM-050) or monomeric Cynomolgus CEACAM5-His (Sino Biological #90891-C08H) were ½ serially diluted in 1× kinetic buffer (Sartorius) starting at 500 nM or 100 nM. Bispecific antibodies were 2 serially diluted starting at 50 nM, 25 nM or 10 nM or 1/1.5 serially diluted starting at 15 nM or 5 nM. Binding kinetics was studied in 1× kinetic buffer where association was allowed for 100 sec, 300 sec or 600 sec followed by dissociation for 100 sec, 300 sec or 3600 sec. Sensor tips were regenerated with 10 mM Glycine pH 1.7. Data generated were referenced by subtracting blank or parallel buffer blank, the baseline was aligned to the y-axis, inter-step correction by alignment against dissociation was performed and the data was smoothed by Savitzky-Golay filter in the data analysis software (v9.0.0.14). The processed data was fitted using a 1:1 Langmuir binding model with R² or X² as a measurement of fitting accuracy.
TABLE 12 Summary of kinetic profiles measured in Octet. Bispecific antibodies in solution (25-0.8 nM, 10-2 or 5-0.7 nM.) interacting with captured CD40mFc-biotin. Association was measured for 300 sec or 600 sec and dissociation was measured for 300 sec or 3600 sec
Background: BLI is a label-free optical method that tracks binding on a fibre tip over time.

T2 sequence (P25942 21-193 limits assumed): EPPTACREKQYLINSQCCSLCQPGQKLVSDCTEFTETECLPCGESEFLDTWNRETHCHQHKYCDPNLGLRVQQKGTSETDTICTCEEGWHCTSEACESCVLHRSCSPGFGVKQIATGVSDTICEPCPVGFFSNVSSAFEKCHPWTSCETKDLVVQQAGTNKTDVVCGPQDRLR

B1: Multi40 (bispecific antibody)
heavy 1: not shown
light: DIQMTQSPSSLSASVGDRVTITCRASQSISSYLNWYQEKPGKAPKLLIYAASSLQSGVPSRFSGSGSGTDFTLTISSLQPEDFATYYCQQSSHGPLLTFGQGTKLEIKRTVAAPSVFIFPPSDEQLKSGTASVVCYLNNFYPREAKVQWKVDNALQSGNSQESVTEQDSKDSTYSLWSTLTLSKADYEKHKVYACEVTHQGLSSPVTKSFNRGEC
heavy 2: EVQLLESGGGLVQPGGSLRLSCAASGFTFSTYGMHWVREAPGKGLEWLSYISGGSSYIFYADSVKGRFTISRDNSKNTLYLQMNSLRAEDTAVYYCARILRGGSGMDLWGQGTLVTVSSASTKGPSVFPLAPSSKSTSGGTAALGCLVKDYFPEPVTVSWNSGALTSGVHTFPAVLQSSGLYSLTSVVEVPSSSLGTQTYICNVNHKPSNTKVDKKVEPKSC
notes: CEACAM5xCD40, Optimized RUBY format; copies: 2 + 2 + 2
Take B1: the binding result in assay [1] is recorded as “binds”.

B2: AC_05293 (bispecific antibody, V domains shown)
VH 1: EVQLLESGGGLVQPGGSLRLSCAASGFTFSSYAMSWVRQAPGKGLEWVSGIGSYGGGTYYADSVKGRFTISRDNSKNTLYLQMNSLRAEDTAVYYCARYVNFGMDYWGQGTLVTVSS
VL 1: DIQMTQSPSSLSASVGDRVTITCRASQSISSYLNWYQQKPGKAPKLLIYAASSLQSGVPSRFSGSGSGTDFTLTISSLQPEDFATYYCQQYGRNPPTFGQGTKLEIK
VL 2: ELVMTQSPSSLTVTAGEKVTMSCKSSQSLLNSGNQKNYLTWYQQKPGQPPKLLIYWASTRESGVPDRFTGSGSGTDFTLTISSVQAEDLAVYYCQNDYSYPLTFGAGTKLEIK
VH 2: EVQLLEQSGAELVRPGTSVKISCKASGYAFTNYWLGWVKQRPGHGLEWIGDIFPGSGNIHYNEKFKGKATLTADKSSSTAYMQLSSLTFEDSAVYFCARLRNWDEPMDYWGQGTTVTVSS
By Kd is commonly meant the equilibrium constant for the complex coming apart. A word on the koff: it is a measure of how fast the partners let go of each other. Low readings indicate a long-lived complex, high ones a short-lived complex. One may read the kon as a measure of how fast the partners come together. Low readings indicate slow association, high ones fast association. Regarding B2, in assay [2], the Kd stood at 76 nM, the koff was 0.00062 s⁻¹ and the kon was found to be 8300 M⁻¹ s⁻¹.

B3: AC_05300 (bispecific antibody, V domains shown)
VH 1: B2 VH 2
VL 1: B2 VL 2
VL 2: B2 VL 1
VH 2: B2 VH 1
On to B3, for which, in assay [2], binding was characterised by a dissociation constant (Kd) of 8.5 nM, the koff was 0.0046 s⁻¹ and the kon was determined as 540000 M⁻¹ s⁻¹.
